Test [1] concerns the target T1, human CD3ε/δ-His (human, UniProt P07766 23-126; P04234 22-105).
T1 construct: Bought recombinant heterodimer with His tag; also called human CD3ε/δ protein
The test can be described thus: ELISA, coated antigen. On the procedure:
(§1) To detect the binding activity of the humanized antibodies to CD3 protein, CD3 protein was diluted with PBS to the final concentration of […], then added to a 96-well ELISA plate at 50 μL/well, and the plate was sealed with a plastic film, and incubated overnight at 4° C. On the next day, the plate was washed 2 times with PBS, and a blocking solution [PBS+2% (v/v) BSA] was added for blocking at room temperature for 2 h. The blocking solution was poured off, and the antibody (initial concentration of 100 nM, and gradient dilution at 1:10) or a negative control antibody was added at 50 µl/well. After incubation at 37° C. for 2 h, the plate was washed 3 times with PBS. […] TMB substrate was added at 50 μl/well, and incubated at room temperature for 10 min, and then a stop solution (1.0 N HCl) was added at 50 μl/well. The OD450 nm values were read by an ELISA microplate reader (Multimode Plate Reader, EnSight, purchased from Perkin Elmer).
A general note: An ELISA detects its analyte on a solid surface through an enzyme-linked reagent.

For test [2], the target named is T2, recombinant human CD3ε-ECD His protein (human, UniProt P07766 23-126).
T2 construct: extracellular domain; also called human CD3ε-His; CD3ε antigen protein; not shown: His tag
Description: ELISA, coated antigen. On the procedure:
as §1

Test [3] has as its target T3, cynomolgus monkey CD3 on the surface of expanded monkey T cells (cynomolgus monkey, UniProt Q95LI5 22-198; Q95LI8 22-171; Q95LI7 23-181).
T3 construct: whole, on cells; Endogenous CD3 within the TCR-CD3 complex on T cells expanded from cynomolgus monkey PBMC
Description: FACS, expanded monkey T cells. On the procedure: (§2) The binding of the chimeric antibodies to CD3 on the cell surface was analyzed by detecting the binding of the antibodies to Jurkat cells and human T cells. Suspension cells Jurkat cells were scale-up cultured in T-75 cell culture flasks to the logarithmic growth phase, the supernatant of the medium was discarded by centrifugation, and the cell pellet was washed 2 times with PBS for later use. The expanded human T cells were washed 2 times with PBS for later use. After counting the cells in the previous step, the cell pellet was resuspended with [PBS+2% (w/w) BSA] blocking solution to 4×10⁶ cells/ml, and added to a 96-well FACS reaction plate at 50 μl/well, and then the chimeric antibody to be tested was added at 50 μl/well, and incubated at 4° C. for 1 h. The cells were centrifuged and washed 3 times with a PBS buffer. […] The cells were centrifuged and washed 5 times with PBS, and FACS (FACS Canto™, purchased from BD Company) was used for detection and result analysis. Data analysis was performed by software (CellQuest) to obtain the mean fluorescence […] (MFI) of the cells. And then software (GraphPad Prism8) was used for analysis, data fitting, and EC50 value calculation. The same method was used to simultaneously detect the binding of the chimeric antibodies to endogenous CD3 negative cells MOLT4 cells.
The expanded monkey T cells were collected, and FACS detection and data analysis were performed according to the method in Example 5.1.
For orientation: A flow cytometer gives signals particle by particle.

For test [4], the target named is T4, human CD3 on the cell surface (Jurkat cells, expanded human T cells, Jurkat-Lucia NFAT cells, human PBMC) (human, UniProt P07766 23-207; P04234 22-171; P09693 23-182).
T4 construct: whole, on cells; Endogenous CD3 within the TCR-CD3 complex on cells (also zeta chains and TCR); the cell type is named under assay
Description: FACS, expanded human T cells. On the procedure:
as §2
The expanded human PBMC cells were collected, and FACS detection and data analysis were performed according to the method in Example 5.1.

Test [5] deals with T5, monkey CD3ε protein (monkey, UniProt Q95LI5 22-117, limits assumed).
T5 sequence (looked up): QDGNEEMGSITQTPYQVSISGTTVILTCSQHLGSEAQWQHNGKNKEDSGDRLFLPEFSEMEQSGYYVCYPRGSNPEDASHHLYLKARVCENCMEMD
The test can be described thus: ELISA, coated antigen. On the procedure: as §1
(§3) To detect the binding activity of the humanized antibodies to monkey CD3 protein, CD3 protein was diluted with PBS to the final concentration of […], and then added to a 96-well ELISA plate at 50 μl/well.

Test [6] addresses T6, monkey CD3ε/δ-His (monkey, UniProt Q95LI5 22-117; Q95LI8 22-105).
T6 construct: Bought recombinant heterodimer with His tag
Description: ELISA, coated antigen. On the procedure: as §1, §3

Test [7] addresses T1, human CD3ε/δ-His. Description: SPR, antibody captured on Protein A chip. On the procedure:
(§4) Running buffer was HBS-EP+(10 mM HEPES, 150 mM NaCl, 3 mM EDTA, 0.05% surfactant P20) (GE Healthcare; BR-1006-69). The flow-through cell was set to 25° C. The sample block was set to 16° C. Both were pretreated with the running buffer. In each cycle, an antibody to be detected was first captured with a Protein A chip, and then a single concentration of CD3ε antigen protein was injected. The binding and dissociation processes of the antibody and the antigen protein were recorded, and finally Glycine pH 1.5 (GE Healthcare; BR-1003-54) was used to complete chip regeneration. The binding was measured by injecting different concentrations of recombinant human CD3ε proteins in a solution for 240 s with a flow rate of 30 μL/min. The concentration started from 200 nM (see the detailed results for the actual concentration in the test) and was diluted at 1:1, making a total of 5 concentrations. The dissociation phase was monitored for up to 600 s and was triggered by switching from sample solution to running buffer. The surface was regenerated by washing with a 10 mM glycine solution (pH 1.5) for 30 s at a flow rate of 30 μL/min. Bulk refractive index difference was corrected by subtracting the response obtained from the goat anti-human Fc surface, and the blank injection was subtracted at the same time (=double reference). For calculation of apparent KD value and other kinetic parameters, Langmuir 1:1 model was used.
For orientation: In SPR one partner is held on a chip, and binding of the other changes the refractive index at the surface.

In test [8] the target is T2, recombinant human CD3ε-ECD His protein. The test can be described thus: SPR, antibody captured on Protein A chip. On the procedure:
as §4

Test [9] addresses T4, human CD3 on the cell surface (Jurkat …). Description: FACS, Jurkat cells, hybridoma screening. On the procedure:
(§5) Suspension cells Jurkat cells (purchased from Cell bank of Chinese Academy of Sciences) were scale-up cultured in T-175 cell culture flasks to the logarithmic growth phase, the supernatant of the medium was discarded by centrifugation, and the cell pellet was washed 2 times with PBS. After counting the cells in the previous step, the cell pellet was resuspended with [PBS+2% (w/v) FBS] blocking solution to 4×10⁶ cells/ml, and added to a 96-well FACS reaction plate at 50 μl/well, the supernatant was removed by centrifugation, detection antibodies (initial concentration of […], gradient dilution at 1:5) and an IgG negative control were added at 100 μl/well, the cells were uniformly mixed, and incubated on ice for 1 h. The cells were centrifuged and washed 3 times with a PBS buffer. […] The cells were centrifuged and washed 5 times with a PBS buffer, and FACS (FACS Canto II, purchased from BD Company) was used for detection and result analysis. Data analysis was performed by software (CellQuest) to obtain the mean fluorescence intensity (MFI) of the cells. And then software (GraphPad Prism8) was used for analysis, data fitting, and EC50 value calculation.
(§6) The binding of the supernatant of the hybridoma to human CD3ε/δ-His (purchased from Sino Biological, Inc. (China), catalog number: CT038-H2508H) and monkey CD3ε/δ-His (purchased from Acrobiosystems, CDD-C52W4) was detected by ELISA for the screening of the supernatant of the hybridoma (see Example 10.1 below). The binding of the supernatant of the ELISA positive hybridoma clone to Jurkat cells and monkey T cells was detected by flow cytometry, and the activation of Jurkat-Lucia NFAT cells (purchased from InvivoGen, catalog number: jktl-nfat) by the supernatant of the hybridoma was detected by a reporter gene system (see Example 2.1, Example 2.4 and Example 7.1 below for the method).

Test [10] has the same target. Description: cell-based or functional assay.
Test [11] concerns the target T3, cynomolgus monkey CD3 on the surface of …. The test can be described thus: FACS, monkey T cells, hybridoma screening. On the procedure: as §5, §6
For test [12], the target named is T1, human CD3ε/δ-His. Description: ELISA, coated antigen, hybridoma screening.
From the text: as §6, §1

Test [13] has as its target T6, monkey CD3ε/δ-His. Description: ELISA, coated antigen, hybridoma screening.
From the text: as §6, §1

T2 sequence (P07766 23-126): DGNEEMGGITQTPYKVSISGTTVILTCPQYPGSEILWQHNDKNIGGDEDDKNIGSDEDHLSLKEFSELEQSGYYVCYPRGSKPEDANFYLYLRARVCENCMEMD
T1 sequence (P07766 23-126, stated change not applied, form in doubt, chain 1 of 2): as the sequence (P07766 23-126) above
T1 sequence (P04234 22-105, stated change not applied, form in doubt, chain 2 of 2): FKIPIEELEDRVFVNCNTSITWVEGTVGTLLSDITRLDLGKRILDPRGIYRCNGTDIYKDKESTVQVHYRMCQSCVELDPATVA
T3 sequence (Q95LI5 22-198, chain 1 of 3): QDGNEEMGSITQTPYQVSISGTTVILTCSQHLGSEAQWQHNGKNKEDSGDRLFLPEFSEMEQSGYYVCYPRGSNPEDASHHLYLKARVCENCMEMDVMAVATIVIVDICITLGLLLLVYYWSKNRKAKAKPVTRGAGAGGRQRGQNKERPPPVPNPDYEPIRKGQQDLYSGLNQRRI
T3 sequence (Q95LI8 22-171, chain 2 of 3): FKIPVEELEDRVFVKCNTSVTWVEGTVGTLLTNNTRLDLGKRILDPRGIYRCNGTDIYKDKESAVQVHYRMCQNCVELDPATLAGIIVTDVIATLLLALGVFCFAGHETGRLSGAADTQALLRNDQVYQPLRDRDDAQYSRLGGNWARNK
T3 sequence (Q95LI7 23-181, chain 3 of 3): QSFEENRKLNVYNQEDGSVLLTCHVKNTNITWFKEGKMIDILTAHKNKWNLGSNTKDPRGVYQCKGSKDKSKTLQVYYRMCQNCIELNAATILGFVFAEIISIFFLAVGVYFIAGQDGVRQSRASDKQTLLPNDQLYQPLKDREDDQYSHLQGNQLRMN
T6 sequence (Q95LI8 22-105, stated change not applied, form in doubt, chain 2 of 2, one chain of several): as the sequence (P04234 22-105, stated change not applied, form in doubt, chain 2 of 2) above, with I5V, N15K, I20V, S32T, D33N, I34N, T64A, S74N, V83L counted along it
T4 sequence (P07766 23-207, chain 1 of 3): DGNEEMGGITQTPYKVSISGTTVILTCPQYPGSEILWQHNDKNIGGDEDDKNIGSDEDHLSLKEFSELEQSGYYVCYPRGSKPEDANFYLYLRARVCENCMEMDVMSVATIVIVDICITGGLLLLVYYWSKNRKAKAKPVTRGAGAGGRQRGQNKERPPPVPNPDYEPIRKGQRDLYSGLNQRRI
T4 sequence (P04234 22-171, chain 2 of 3): as the sequence (Q95LI8 22-171, chain 2 of 3) above, with V5I, K15N, V20I, T32S, N33D, N34I, A64T, N74S, L83V, R141H counted along it
T4 sequence (P09693 23-182, chain 3 of 3): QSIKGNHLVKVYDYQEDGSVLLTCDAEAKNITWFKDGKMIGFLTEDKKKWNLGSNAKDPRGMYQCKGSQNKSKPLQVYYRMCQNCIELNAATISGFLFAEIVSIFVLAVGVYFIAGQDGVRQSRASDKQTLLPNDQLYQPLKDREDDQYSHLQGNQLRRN

B1: 1-22.6-1-H2a-L2a humanized antibody (antibody, human IgG1, kappa, V domains shown)
VH: EVQLVQSGSELKKPGASVKVSCKTSGYTFTSYGMSWVRQAPGQGLEWMGWINTYSGVPTYAQDFKGRFVFSLDTSVSTAYLQISSLKAEDTAVYYCARLKNNPFVWGQGTTVTVSS
VL: DIVMTQSPDSLAVSLGERATINCRSSQLILHSSGNTYLEWYQQKPGQSPKLLIYKVSNRFSGVPDRFSGSGSGTDFTLTISSLQAEDVAVYYCFQGSHFPWTFGGGTKVEIKR
notes: also called 1-22.6-H2a-L2a
On to B1, for which the EC50 (in general, the concentration needed to bring the measured effect to its halfway point) is 0.45 nM in [1]; 0.1 nM in test [2]; 6.92 nM in test [3]; 11 nM in test [4]; 0.000106 nM in [5]; 0.0124 nM in test [6]. The max-OD450 came out at 3.29 OD450 in test [1], 1.49 OD450 in [2], 3.09 OD450 in test [5] and 3.23 OD450 in test [6]. Also, the max_MFI in test [3] came to 12300 MFI; in test [4], 15900 MFI. The Kd (commonly the equilibrium constant for the complex coming apart) in test [7] worked out at 113 nM; in test [8], 3.64 nM. Besides, the koff (usually a measure of how fast the partners let go of each other) is 0.0134 s⁻¹ in test [7] and 0.000305 s⁻¹ in [8]. In addition, the kon (as a rule, the rate constant with which the complex forms) turned out to be 119000 M⁻¹ s⁻¹ in test [7] and 83600 M⁻¹ s⁻¹ in [8].

B2: 5-40.21 murine hybridoma antibody (supernatant) (antibody, V domains shown)
VH: QVQLQQPGSELVRPGASVKLSCKASGYTFTSYWMHWVKQRPGQGLEWIGNTYPGSGSTNYDEKFKSKATLTVDSSSSTAYMQLSSLTSEDSAVYYCTRDRYGVYYFDYWGQGTTLTVSS
VL: DIVMSQSPSSLAVSAGEKVTMSCKSSQSLLNSRTRKNYLAWYQQKPGQSPKLLIYWASTRESGVPDRFSGSGSGTDFTLTISSVQAEDLAVYYCTQSYNLRTFGGGTKLEIK
notes: Tested as hybridoma supernatant
Consider B2, for which the Mean fluorescence intensity in test [9] was determined as 6910 MFI; in test [11] it was 15200 MFI. Further, in test [10], the “Reporter assay (RLU), Jurkat-Lucia NFAT, supernatant diluted by 4 times” value (“Reporter assay (RLU) … by 4 times” below) was 18900 RLU. For the same molecule, the “Reporter assay (RLU), Jurkat-Lucia NFAT, supernatant diluted by 20 times” value (from here on “Reporter assay (RLU) … by 20 times”) in test [10] was found to be 15600 RLU. Moreover, the OD450 in test [12] came out at 2.15 OD450; in test [13] it was 1.82 OD450.

B3: 6-35.22 murine hybridoma antibody (supernatant) (antibody, V domains shown)
VH: EVKLVESGGGLVQPGASLSLSCAASGFTFTDYYMSWVRQPPGKALEWLAMSRNKAKGHTIEYSSSVKGRFTISRDNSQSILYLQMNALRAEDSATYYCARDTYESYDGYFDVWGAGTTVIVSS
VL: DIVMSQSPSSLAVSAGETVTMSCKSSQSLFNSRSRKNYLAWYQQKPGQTPKLLIYWASIRESGVPDRFTGSGSGTDFTLTISSVQAEDLAVYYCKQSYYLYTFGSGTKLEIK
notes: as for B2
Take B3: the Mean fluorescence intensity in [9] is 7050 MFI; in test [11], 32600 MFI. Moreover, the “Reporter assay (RLU) … by 4 times” value in test [10] came out at 29000 RLU. In addition, in test [10], the “Reporter assay (RLU) … by 20 times” value is 34100 RLU. For the same molecule, the OD450 worked out at 2.01 OD450 in test [12] and 1.74 OD450 in test [13].

B4: 6-44.5 murine hybridoma antibody (supernatant) (antibody, V domains shown)
VH: EVQLQQSGPELVKPGASVKMSCKASGHTFTSHIMHWVKQKPGQGLEWIGYINPNNDRTEYSEKFKGKATLTSDKSSSTAYMELSSLTSEDSAVYYCAGEAYYSNSLYAMDYWGQGTSVTVSS
VL: DIVMSQSPSSLAVSAGEKVTMSCKSSQSLFNSRTRKNYLAWYQQKPGQSPELLIYWASTRESGVPVRFTGSGSGTDFTLTISSVQAEDLAVYYCKQSYYLRTFGGGTKLEVK
notes: as for B2
For B4, the values for the Mean fluorescence intensity in test [9] and in [11] were 7240 MFI and 36200 MFI, respectively. Further, the “Reporter assay (RLU) … by 4 times” value in test [10] turned out to be 26200 RLU. The “Reporter assay (RLU) … by 20 times” value in test [10] amounted to 21400 RLU. The OD450 is 2.06 OD450 in test [12] and 1.94 OD450 in [13].

B5: 1-22.6 murine hybridoma antibody (supernatant) (antibody, V domains shown)
VH: QIPLVQSGPELKKPGETVKISCKTSGYTFTSYGMSWVKQAPGKGLKWMGWINTYSGVPTYADDFKGRFVFSLDTSASTAFLQINNLKNEDTATYFCARLKNNPFCWGQGSTLTVFS
VL: DVLMTQSPLSLPVRLGDQASISCRSSQLILHSNGNTYLEWYLQKPGQSPKLLIYKVSNRFSGVPDRFSGSGSGTDFTLKISRVEAEDLGVYYCFQGSHFPWTFGGGTKLEIK
notes: as for B2
On to B5, for which the Mean fluorescence intensity was found to be 767 MFI in test [9] and 20800 MFI in test [11]. Also, the “Reporter assay (RLU) … by 4 times” value in test [10] worked out at 16000 RLU. In addition, the “Reporter assay (RLU) … by 20 times” value in test [10] was found to be 8890 RLU. The OD450 in test [12] came to 2.17 OD450; in test [13], 3.08 OD450.

Values taken from patent US20250136687A1 (SHANDONG SIMCERE BIOPHARMACEUTICAL, published 2025).
